What was measured:
[1] = biological target: T1, Human CD79b, endogenous on diffuse large B-cell lymphoma cell lines (human, UniProt P40259 29-229); test: flow cytometry on OCI-LY10 cells (endogenous CD79b and CD20; the trispecific also has a CD20 arm)
T1 construct: On HBL-1, OCI-LY10 and Carnaval cells, which also carry CD20; also called Igβ
T1 sequence: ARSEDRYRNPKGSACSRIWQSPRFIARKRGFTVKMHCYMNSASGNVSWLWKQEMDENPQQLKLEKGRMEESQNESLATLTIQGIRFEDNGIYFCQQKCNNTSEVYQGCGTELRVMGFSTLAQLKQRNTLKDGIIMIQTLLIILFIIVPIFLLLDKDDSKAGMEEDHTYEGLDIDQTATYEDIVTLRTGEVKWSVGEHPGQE

[2] = biological target: T1, Human CD79b, endogenous on diffuse …; test: flow cytometry on Carnaval cells (endogenous CD79b and CD20; the trispecific also has a CD20 arm)
[3] = biological target: T2, Human CD79b short isoform, recombinant extracellular domain (CD9W7.001) (human, UniProt P40259 29-159); test: SPR Biacore 8K, antibody captured by anti-human Fc, CD79b in solution, 25 C, 1:1 Langmuir
T2 chain: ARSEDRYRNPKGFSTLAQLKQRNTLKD
Experimental: (§1) General Protocol for SPR Affinity Assessment: Affinity assessment of the bispecific and trispecific constructs against human CD79b were measured using recombinantly expressed extracellular domain of CD79b short and long isoforms (CD9W7.001 and CD9W8.001, respectively) by Surface Plasmon Resonance (SPR) using a Biacore 8 k SPR system (Biacore) at 25° C. in HBSP+ buffer. Cross-reactivity of the same antibody panel was also assessed against cyno and mouse antigens (CD9W1.001 and CD9W105.001, respectively). Briefly, a C1 sensor chip was immobilized with anti-human Fc (target immobilization levels of >400 RU) using vendor recommended amino coupling protocol. The test antibodies were captured through immobilized anti-Fc and was followed by the injection of different CD79b constructs at different concentration series (human CD79b short and long isoforms: 30 nM-0.37 nM at 3-fold dilutions; cyno and mouse CD79b: 3000 nM-37 nM at 3-fold dilutions). The association and dissociation phases were measured for 2 or 3 minutes and 30 minutes, respectively.
(§2) The raw binding sensorgrams were processed using Biacore Insight software (Biacore) by double-referencing and the processed sensorgrams were analyzed for cross-reactivity and fitted to a 1:1 Langmuir model to obtain on-rates, off-rates and affinities.

[4] = biological target: T3, Human CD79b long isoform, recombinant extracellular domain (CD9W8.001) (human, UniProt P40259 29-159); test: as above
T3 construct: extracellular domain; also called hu CD79b long
T3 sequence (looked up): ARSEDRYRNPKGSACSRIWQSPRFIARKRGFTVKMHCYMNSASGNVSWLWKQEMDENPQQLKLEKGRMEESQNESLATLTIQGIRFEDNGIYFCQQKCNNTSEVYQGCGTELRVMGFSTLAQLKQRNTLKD
Experimental: as §1, §2

[5] = biological target: T1, Human CD79b, endogenous on diffuse …; test: flow cytometry on HBL-1 cells (endogenous CD79b and CD20; the trispecific also has a CD20 arm)
[6] = biological target: T4, recombinant cynomolgus PSMA (cynomolgus, UniProt A0A2K5VNZ0 44-750); test: SPR (Biacore 8K), antibody captured on anti-Fc, PSMA in solution; average of 3
T4 construct: also called cy PSMA; cyno PSMA
Experimental: (§3) The binding affinity of anti-PSMA to the recombinant human or cynomolgus PSMA was determined by surface plasmon resonance (SPR) using a Biacore 8K instrument (ELN PSMA-00721). The antibodies were captured on a goat anti-Fc antibody-modified C1 chip and titrated with 3-fold serial dilutions of PSMA antigen spanning concentrations of 100 nM to 3.7 nM (human PSMA) or […] 22.2-600 nM for cyno PSMA. The association and dissociation were monitored for 3 and 60 minutes, respectively, using a flow rate of 50 μL/min. Raw binding data was referenced by subtracting the analyte binding signals from blanks and analyzed using a 1:1 Langmuir binding model by the Biacore Insight evaluation software to obtain the kinetics which were used to calculate the binding affinity. The anti-PSMA were captured using an anti-human Fc antibody and the antigens were injected in solution.

recombinant human PSMA = biological target: T5, recombinant human PSMA (human, UniProt Q04609 44-750); test: SPR (Biacore 8K), antibody captured on anti-Fc, PSMA in solution; average of 2
T5 construct: also called hu PSMA; prostate-specific membrane antigen
T5 sequence (Q04609 44-750 limits assumed): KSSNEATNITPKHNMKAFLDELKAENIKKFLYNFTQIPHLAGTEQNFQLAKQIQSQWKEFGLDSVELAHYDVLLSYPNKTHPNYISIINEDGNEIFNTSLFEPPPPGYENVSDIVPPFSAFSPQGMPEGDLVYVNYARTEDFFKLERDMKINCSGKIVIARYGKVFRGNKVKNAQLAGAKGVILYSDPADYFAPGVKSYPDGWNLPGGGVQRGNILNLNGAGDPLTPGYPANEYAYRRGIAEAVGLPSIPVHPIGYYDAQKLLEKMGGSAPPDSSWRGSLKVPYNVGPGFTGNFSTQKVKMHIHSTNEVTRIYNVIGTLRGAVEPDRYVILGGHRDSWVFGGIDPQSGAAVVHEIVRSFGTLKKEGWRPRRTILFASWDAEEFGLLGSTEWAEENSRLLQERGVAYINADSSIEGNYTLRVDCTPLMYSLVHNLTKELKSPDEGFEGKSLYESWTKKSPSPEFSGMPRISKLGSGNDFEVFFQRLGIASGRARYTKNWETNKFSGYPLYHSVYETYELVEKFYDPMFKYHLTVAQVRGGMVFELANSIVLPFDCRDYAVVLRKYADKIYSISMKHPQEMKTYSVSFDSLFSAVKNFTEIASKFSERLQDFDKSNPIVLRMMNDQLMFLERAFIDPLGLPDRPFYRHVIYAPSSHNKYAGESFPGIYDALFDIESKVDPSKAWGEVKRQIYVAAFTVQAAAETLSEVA
Experimental: as §3

B1: C923B74 (other)
heavy: QVQLQQSGPGLVKPSQTLSLTCAISGDSVSSNSATWNWIRQSPSRGLEWLGRTYYRSKWYNDYTVSVKSRITINPDTSKNQFSLQLNSVTPEDTAVYYCTRVDIAFDYWGQGTLVTVSSASTKGPSVFPLAPSSKSTSGGTAALGCLVKDYFPEPVTVSWNSGALTSGVHTFPAVLQSSGLYSLSSVVTVPSSSLGTQTYICNVNHKPSNTKVDKKVEPKSCDKTHTCPPCPAPEAAGGPSVFLFPPKPKDTLMISRTPEVTCVVVSVSHEDPEVKFNWYVDGVEVHNAKTKPREEQYNSTYRVVSVLTVLHQDWLNGKEYKCKVSNKALPAPIEKTISKAKGQPREPQVYTLPPSREEMTKNQVSLSCAVKGFYPSDIAVEWESNGQPENNYKTTPPVLDSDGSFFLVSKLTVDKSRWQQGNVFSCSVMHEALHNRFTQKSLSLSPGK
light: QTVVTQPPSVSEAPRQRVTISCSGSSSNIGNHGVNWYQQLPGKAPKLLIYNDDLLPSGVSDRFSGSTSGTSGSLAISGLQSEDEADYYCAAWDDSLNGVVFGGGTKLTVLGQPKAAPSVTLFPPSSEELQANKATLVCLISDFYPGAVTVAWKADSSPVKAGVETTTPSKQSNNKYAASSYLSLTPEQWKSHRSYSCQVTHEGSTVEKTVAPTECS
chain: EIVLTQSPATLSASPGERVTLSCSASSSVSYMNWYQQKPGQAPRRWIYDSSKLASGVPARFSGSGSGRDYTLTISSLEPEDFAVYYCQQWSRNPPTFGGGTKVEIKGGSEGKSSGSGSESKSTGGSQVQLVQSGAEVKKPGSSVKVSCKASGYTFTRSTMHWVKQAPGQGLEWIGYINPSSAYTNYNQKFQGRVTLTADKSTSTAYMELSSLRSEDTAVYYCASPQVHYDYAGFPYWGQGTLVTVSSEPKSSDKTHTCPPCPAPEAAGGPSVFLFPPKPKDTLMISRTPEVTCVVVSVSHEDPEVKFNWYVDGVEVHNAKTKPREEQYNSTYRVVSVLTVLHQDWLNGKEYKCKVSNKALPAPIEKTISKAKGQPREPQVYTLPPSREEMTKNQVSLWCLVKGFYPSDIAVEWESNGQPENNYKTTPPVLDSDGSFFLYSKLTVDKSRWQQGNVFSCSVMHEALHNHYTQKSLSLSPGKGGSEGKSSGSGSESKSTGGSAIQLTQSPSSLSASVGDRVTITCRASSSVSYIHWFQQKPGKAPKPLIYATSNLASGVPSRFSGSGSGTDFTLTISSLQPEDFATYYCQQWTSNPPTFGQGTKLEIKGGSEGKSSGSGSESKSTGGSQVQLVQSGAEVKKPGSSVKVSCKASGYTFTSYNMHWVRQAPGQGLEWMGAIYPGNGDTSYAQKFQGRVTITADKSTSTAYMELSSLRSEDTAVYYCARSTYYGGDWYFNVWGQGTLVTVSS
notes: Trispecific IgG1 antibody; HC1/LC form the CD79b Fab; HC2 is CD3 scFv-Fc-linker-CD20 scFv; also called CD79bxCD20xCD3 trispecific; CD9B330-N31S / CD3B2030-N106A-scFv-LH-C20B22
EC50 [1]: 66 nM
EC50 [2]: 23 nM
Kd [3]: 0.39 nM
Kd [4]: 0.023 nM
EC50 [5]: 52 nM

B2: C923B99 (other)
heavy: QVQLQESGPGLVKPSQTLSLTCTVSGVSISNYYWSWIRQPPGKGLEWIGRISPSGRTNYNPSLKSRVTMSLDASKNQFSLKLSSVTAADTAVYYCARGEYSGTYSYSFDIWGQGTMVTVSSASTKGPSVFPLAPSSKSTSGGTAALGCLVKDYFPEPVTVSWNSGALTSGVHTFPAVLQSSGLYSLSSVVTVPSSSLGTQTYICNVNHKPSNTKVDKKVEPKSCDKTHTCPPCPAPEAAGGPSVFLFPPKPKDTLMISRTPEVTCVVVSVSHEDPEVKFNWYVDGVEVHNAKTKPREEQYNSTYRVVSVLTVLHQDWLNGKEYKCKVSNKALPAPIEKTISKAKGQPREPQVYTLPPSREEMTKNQVSLSCAVKGFYPSDIAVEWESNGQPENNYKTTPPVLDSDGSFFLVSKLTVDKSRWQQGNVFSCSVMHEALHNRFTQKSLSLSPGK
light: DIQMTQSPSSLSASVGDRVTITCRSSQSLFDSDDGNTYLDWFQQKPGQSPKLLIQTLSYRASGVPSRFSGSGSGTDFTLTISSLQPEDFATYYCMQRMEFPLTFGGGTKVEIKRTVAAPSVFIFPPSDEQLKSGTASVVCLLNNFYPREAKVQWKVDNALQSGNSQESVTEQDSKDSTYSLSSTLTLSKADYEKHKVYACEVTHQGLSSPVTKSFNRGEC
chain: B1 chain
notes: Trispecific IgG1 antibody; HC1/LC form the CD79b Fab; HC2 is CD3 scFv-Fc-linker-CD20 scFv; also called CD79bxCD20xCD3 trispecific; CD9B643 / CD3B2030-N106A-scFv-LH-C20B22
EC50 [1]: 2 nM
EC50 [2]: 6 nM
Kd [3]: 0.27 nM
Kd [4]: 0.04 nM
EC50 [5]: 8 nM

B3: PS3B1391 (bispecific antibody, human IgG1, kappa, L234A L235A)
chain: EIVLTQSPATLSASPGERVTLSCSASSSVSYMNWYQQKPGQAPRRWIYDSSKLASGVPARFSGSGSGRDYTLTISSLEPEDFAVYYCQQWSRNPPTFGGGTKVEIKGGSEGKSSGSGSESKSTGGSQVQLVQSGAEVKKPGSSVKVSCKASGYTFTRSTMHWVKQAPGQGLEWIGYINPSSAYTNYNQKFQGRVTLTADKSTSTAYMELSSLRSEDTAVYYCASPQVHYDYAGFPYWGQGTLVTVSSEPKSSDKTHTCPPCPAPEAAGGPSVFLFPPKPKDTLMISRTPEVTCVVVSVSHEDPEVKFNWYVDGVEVHNAKTKPREEQYNSTYRVVSVLTVLHQDWLNGKEYKCKVSNKALPAPIEKTISKAKGQPREPQVYTLPPSREEMTKNQVSLWCLVKGFYPSDIAVEWESNGQPENNYKTTPPVLDSDGSFFLYSKLTVDKSRWQQGNVFSCSVMHEALHNHYTQKSLSLSPGK
heavy: EVQLVESGGGLVKPGGSLRLSCVASGFTFSFYSMNWVRQAPGKGLDWVSSISSSGNYIYYADSVKGRFTISRDNAKNSLHLHMNSLKAEDTAMYFCARSYSGSYDAFDFWGQGTMVTVSSASTKGPSVFPLAPSSKSTSGGTAALGCLVKDYFPEPVTVSWNSGALTSGVHTFPAVLQSSGLYSLSSVVTVPSSSLGTQTYICNVNHKPSNTKVDKKVEPKSCDKTHTCPPCPAPEAAGGPSVFLFPPKPKDTLMISRTPEVTCVVVSVSHEDPEVKFNWYVDGVEVHNAKTKPREEQYNSTYRVVSVLTVLHQDWLNGKEYKCKVSNKALPAPIEKTISKAKGQPREPQVYTLPPSREEMTKNQVSLSCAVKGFYPSDIAVEWESNGQPENNYKTTPPVLDSDGSFFLVSKLTVDKSRWQQGNVFSCSVMHEALHNRFTQKSLSLSPGK
light: EIVMTQSPGTLSLSPGERATLSCRASQSVSSSFLAWYQQKPGQAPRLLISGASSRATGIPDRFSVSGSGTDFTLTISRLEPEDFAVYYCQQYGVSPWTFGQGTKVEIKRTVAAPSVFIFPPSDEQLKSGTASVVCLLNNFYPREAKVQWKVDNALQSGNSQESVTEQDSKDSTYSLSSTLTLSKADYEKHKVYACEVTHQGLSSPVTKSFNRGEC
notes: HC 1: N-term scFv LH CD3B2030 N106A; HC 2: N-term Fab PSMHB49SC1133_011A11_1; LC1 is given as NA; also called PS3B1391.002
Kd [6]: 0.126 nM
koff [6]: 1.96e-05 s⁻¹
kon [6]: 157000 M⁻¹ s⁻¹
Kd (recombinant human PSMA): 0.1 nM
koff (recombinant human PSMA): 4.8e-05 s⁻¹
kon (recombinant human PSMA): 480000 M⁻¹ s⁻¹

From US20250145711A1 (Janssen / Centocor, published 2025)
